From PMC6795539 (Nature medicine, 2019)
Positions count from the first letter of the chain named. Where two headings read alike, the source gives them in different places.

B1: NZM-mFc, variant of NZM in which the human Fc was replaced with the murine counterpart (antibody, V domains shown)
VH: QVQLVQSGAEVKKPGASVKVSCKASGFNIKDTYIHWVRQAPGQRLEWMGRIDPANGYTKYDPKFQGRVTITADTSASTAYMELSSLRSEDTAVYYCAREGYYGNYGVYAMDYWGQGTLVTVSS
VL: DIQMTQSPSSLSASVGDRVTITCKTSQDINKYMAWYQQTPGKAPRLLIHYTSALQPGIPSRFSGSGSGRDYTFTISSLQPEDIATYYCLQYDNLWTFGQGTKVEIK
B2: NZM variant var2 (light chain CDR2 modified), full human IgG4 (antibody, V domains shown)
VH: B1 VH
VL: B1 VL with S52K, A53G, L54N, P56S
B3: NZM variant var4 (light chain CDR2 modified), full human IgG4 (antibody, V domains shown)
VH: B1 VH
VL: B1 VL with S52K, A53S, L54N, P56S
B4: Natalizumab (NZM), humanized monoclonal IgG4 antibody to α4 integrins (antibody, V domains shown)
VH: B1 VH
VL: B1 VL
B5: NZM variant var3 (light chain CDR2 modified), full human IgG4 (antibody, V domains shown)
VH: B1 VH
VL: B1 VL with S52K, A53S, L54N
B6: NZM variant var1 (light chain CDR2 modified), full human IgG4 (antibody, V domains shown)
VH: B1 VH
VL: B1 VL with S52K, A53G, L54N

Columns and labels:
[1] = target: T1, α4 integrin on the surface of T cells (Homo sapiens, UniProt P13612); assay: flow cytometry on cells
[2] = target: T1, α4 integrin on the surface of T cells; assay: flow cytometry on cells; remark: listed apart in the source

Binder | binding result [1] | binding result [2]
B1 | binds | –
B2 | – | binds
B3 | – | binds
B4 | – | binds
B5 | – | binds
B6 | – | binds
